The experiment has as its target T1, Extracellular domain (ECD) of the human neuronal α9 nAChR (human, UniProt Q9UGM1 23-238).
T1 construct: also called ECD of human α9 nAChR; water-soluble extracellular domain of human α9 nAChR; source: expressed, enzymatically deglycosylated and purified as described [26]
Put plainly: radioligand binding. Particulars: both partners purified.

T1 sequence (Q9UGM1 23-238): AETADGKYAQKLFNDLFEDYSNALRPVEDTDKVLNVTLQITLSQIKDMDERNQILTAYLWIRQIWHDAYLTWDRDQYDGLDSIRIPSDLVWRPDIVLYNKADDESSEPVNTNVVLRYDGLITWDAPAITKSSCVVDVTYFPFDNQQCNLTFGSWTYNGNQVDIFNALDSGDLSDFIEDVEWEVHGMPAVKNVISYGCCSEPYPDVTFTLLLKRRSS

B1: PLA2 from porcine pancreas (enzyme)
chain: not shown
notes: also called PP PLA2; porcine pancreatic PLA2
B1 had an IC50 of 5.5 µM.
